Results taken from the supplement of paper PMC9170038.

Test system: MS2 coat protein
Assay: apparent KD of MS2 coat protein; designed switch direction (-1 OFF switch, 1 ON switch): -1; higher = weaker reporter binding
Summary of the method: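 The reported apparent KD is a per-design median over clusters, from curve fits of normalised cluster fluorescence. Protein titrations used SNAP-549-labelled MS2 coat protein, doubled from 0.7 or 1.5 nM to 3 µM, in Tris-HCl pH 7.5 buffer with KCl, MgCl2, BSA, DTT, tRNA and Tween-20, with no input, 200 uM small-molecule ligand, or an oligonucleotide input. The RNA switches were transcribed on Illumina chips by stalled E. coli RNA polymerase.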

[1] = input ligand: microRNA oligo, concentration not stated
[2] = Eterna round: R95, input ligand: FMN 200 uM
[3] = Eterna round: R95, input ligand: microRNA oligo, concentration not stated
[4] = Eterna round: R95, input ligand: none

Sequence	apparent KD of MS2 coat protein (input ligand: FMN 200 uM)	apparent KD of MS2 coat protein (input ligand: none)	apparent KD of MS2 coat protein [3]	further results
CUGAGUAGAGGAUAUACAUGAGGAUCACCCAUGUAAAGUAGCUUGCGUACAGGCAGAUGUAGAAGGUUAUUCGG [Mod of JL 13 - Jieux - Exclusion 3] (Eterna round: R97, puzzle: Exclusion 3)	53.1 nM	50.9 nM		
AAUCAACAUGAGGAUCACCCAUGUGAGGAUAUAGGCAUGCAUGCAUGCAUGCAUGCAACUAGAAGGCACAAUAC [Design #18] (Eterna round: R97, puzzle: Exclusion 1)	58.2 nM	37.4 nM		
AGAUGCUCAAGUCGACAUGAGGAUCACCCAUGUACAGUUAAUGAGGAUAUCUGAGACAAAUAGUAGGAGAAGGCGUGAACAUGA [Ex NG3 #10] (Eterna round: R96, puzzle: Exclusion NG 3)	55.2 nM	57.6 nM		apparent KD of MS2 coat protein [1]: 26.5 nM
GGUUGACAUGAGGAUCACCCAUGUGAGGAUAUGCGAGAGAAAAAAGUGAGGAAGUUAAGCAGAAGGCGCUGUCG [salish99-ex1_r3_005] (puzzle: Exclusion 1)			78 nM	apparent KD of MS2 coat protein [2]: 89.5 nM; apparent KD of MS2 coat protein [4]: 307 nM
GCAUGGAAAGUGAGGAUAUACCACUGGAUACAGUGGUAGAAGGCACAUGAGGAUCACCCAUGUCUCUACCAUGC [Fiskers BMX 4 - 41] (puzzle: Brourd's mod of Exclusion 4)			13.4 nM	
UGAGUGCUGCGAGGAUAUACAUGAGGAUCACCCAUGUUAUCGUGUGAGGCUUUGCCUCACACGAAGUAGAAGGCGCAGUACUCU [JL ENG2 1.11] (Eterna round: R96, puzzle: Exclusion NG 2)	9.84 nM	14.2 nM		apparent KD of MS2 coat protein [1]: 10.2 nM
UUUUUCGAACAAGCUUCGAACAUGAGGAUCACCCAUGUAGGUAGAUUUGAGUAGGUUUGGAAGUAAGCUCGUCUUAU [JR_SV3TOV1_Sub081] (puzzle: Sensor v3, turn-off variant 1)			561 nM	apparent KD of MS2 coat protein [2]: 416 nM; apparent KD of MS2 coat protein [4]: 592 nM
AGAGCACAUGAGGAUCACCCAUGUCAGGAUAUCGACUGAACAGCUUCGGCUGUUCAGUCGAGAAGGGACAAUUA [Brourdxlusion 7 - Jieux - Exclusion 1] (Eterna round: R97, puzzle: Exclusion 1)	19.4 nM	35 nM		
AGAAAACGAGGAUAUACGUGCAUAUUCUCGCCCAAUGGGCAACAUGAGGAUCACCCAUGUAGAAGGCGUAAAGA [Dienoror] (puzzle: Exclusion 2)			34.6 nM	
AAUCCUAGAGGAUAUACAUGUGAACUACUGUACAUCCCUGUACAUGAGGAUCACCCAUGUAGAAGGCUGACGGA [Eternabot (L2) Solution 97] (Eterna round: R97, puzzle: Exclusion 2)	244 nM	197 nM		
AAUAAGCGAGGAUAUACAUGAGGAUCACCCAUGUGGACCGGGUGUUCAGCAAAUAAAAGUAGAAGGCGCAAAAG [Tibiater] (puzzle: Exclusion 3)			46.8 nM	apparent KD of MS2 coat protein [2]: 29.1 nM; apparent KD of MS2 coat protein [4]: 25.8 nM
AAUACAAUAAUUAAAGAGAUAGUACAUUAUACAAGUGAAACAUGAGGAUCACCCAUGUCCUCAUUUGCUCGUCUAAU [Hunting Buffalo with a BB Gun] (puzzle: Sensor v3, turn-off variant 2)			142 nM	apparent KD of MS2 coat protein [2]: 334 nM; apparent KD of MS2 coat protein [4]: 435 nM
GGUGCGUUUGUGAGGAUAUGCUGGUCCUUGGAUCCGCAGAAGGCACAUGAGGAUCACCCAUGUGGUGUCGUACC [salish99_Bmod_Ex4_034] (puzzle: Brourd's mod of Exclusion 4)			199 nM	
UUGUUAUGUGUAGGAUAUGCAUAUUAUUAUUAUGCAGAAGGACAUGAGGAUCACCCAUGUGUAUUGUUAUUAUAUAUUAUAUAU [Title] (Eterna round: R96, puzzle: Exclusion NG 1)				apparent KD of MS2 coat protein [1]: 17.1 nM
CUUGUGUCAGGAUAUGCUAAGUAUUCGUUUUACGCGUCUAGGCAGAAGGGACAUGAGGAUCACCCAUGUAACGC [EX4 B.30] (Eterna round: R97, puzzle: Exclusion 4)	172 nM	133 nM		
ACGGUCAUAGGAUAUACUGGGACAGCGCUAAGGCGCCCUUGACAUGAGGAUCACCCAUGUAGAAGGAUGUCCGA [EX2 C.1] (Eterna round: R97, puzzle: Exclusion 2)	152 nM	22.6 nM		
AAAUCGGUGGAGGAUAUUGUACAGGAAACGGUGCGAGAAGGUUACACAUGAGGAUCACCCAUGUUAAAUAGCGA [EX6 #56] (Eterna round: R97, puzzle: Exclusion 6)	25.2 nM	22.1 nM		
UUUUACAGGCUUAGAUCCUACAUGAGGAUCACCCAUGUGGAGGCGUGUCGUGAGACAUGCCUCUAAGCUCGUCUUGU [JL TOV1 3.74] (Eterna round: R97, puzzle: Sensor, turn-off variant 1)	86.2 nM	103 nM		

Sequence	apparent KD of MS2 coat protein (input ligand: FMN 200 uM)	apparent KD of MS2 coat protein (input ligand: none)	apparent KD of MS2 coat protein [3]	further results
AAUAACAGAGGAUAUACUAUUUUAUGUGUUUGUUGUUUUAAACAUGAGGAUCACCCAUGUAGAAGGCUGAUUAA [JMF 46] (puzzle: Exclusion 2)			33.1 nM	
GGAAAAAUAUAGGAUAUGGGAGGGAGGACCGAACCAGAAGGAUAGACAUGAGGAUCACCCAUGUAAAGAUCCUC [AK-MS2ROC-r4-exclusion6-6] (Eterna round: R97, puzzle: Exclusion 6)	377 nM	204 nM		
AAGUAACAUGAGGAUCACCCAUGUUAGGAUAUCUCGGCCGCGGCAUCGCCGCGAAACCAGAGAAGGAGCGGGUG [Erargeisar] (Eterna round: R97, puzzle: Exclusion 1)	206 nM	160 nM		
GUCAGCUCGUGAGGAUAUAUAUACAUGAGGAUCACCCAUGUAAGAUCAGGCUUCGGCCAAUGUAUAUAGAAGGCACGAGCUGAC [ENG2/11-A1] (Eterna round: R96, puzzle: Exclusion NG 2)	1350 nM	636 nM		apparent KD of MS2 coat protein [1]: 1510 nM
GGUCAAGAGCAGAUCCGCGCUGCUAUUGACCGCUCAUUUACAUGAGGAUCACCCAUGUUUUUUGCUCGUCUUAUUAC [Biinedmaa] (puzzle: Sensor v3, turn-off variant 2)			77.7 nM	apparent KD of MS2 coat protein [2]: 19.4 nM; apparent KD of MS2 coat protein [4]: 18.7 nM
GAUCAUGCAGGAUAUACAGUUUCCAUGAAAACAUGGAACUCACAUGAGGAUCACCCAUGUAGAAGGGCAUGAUC [Omei Ex2 A26] (Eterna round: R97, puzzle: Exclusion 2)	25.9 nM	16.2 nM		
UGAUCUAGCGGAGGAUAUACAUGAGGAUCACCCAUGUAGUUGUCUGUACCGUAGUGCAGACUUGUGUAGAAGGCCGCUAGAUCU [JL ENG2 3.62] (Eterna round: R96, puzzle: Exclusion NG 2)	25.9 nM	14.3 nM		apparent KD of MS2 coat protein [1]: 9.62 nM
GUGCCGCGAGGAUAUACAGACGGGUCCAAAACGUGUCUCGGACUUGAGGAUCACCCAAGUAGAAGGCGUUUCAG [salish99_ex2_r4_620] (Eterna round: R97, puzzle: Exclusion 2)	18.6 nM	18.4 nM		
AAAUUCUGAGGAUAUCGAUGUUUGUACAUGAGGAUCACCCAUGUCCUUUUUAUUUUUUCCCGAGAAGGCAGUGUAU [JR_E5_Sub099] (puzzle: Exclusion 5)			36.6 nM	
GGUACUAUCACCUGAGUGGUAGUGCAAUAAGCUUGUGAUACAUGAGGAUCACCCAUGUCCUCAUUUGCUCGUCUUAU [JL-sv3-2.26 JL mod] (puzzle: Sensor v3, turn-off variant 2)			516 nM	apparent KD of MS2 coat protein [2]: 533 nM; apparent KD of MS2 coat protein [4]: 839 nM
GCACGGAGUGUAGGAUAUCUGUGCGAUUAGCUCAGAGAAGGACACAUGAGGAUCACCCAUGUGUACCUCAACAUUAAUCCGUGC [Eli exng1 - 075] (Eterna round: R96, puzzle: Exclusion NG 1)	10.1 nM	10.1 nM		apparent KD of MS2 coat protein [1]: 6.62 nM
UUCCUCGUUGUGAGGAUAUCGUCCUAUUUUUGUUACGAGAAGGCACAUGAGGAUCACCCAUGUUACUUGAUGUU [JR_BMOE4_Sub071] (puzzle: Brourd's mod of Exclusion 4)			21.2 nM	
CAGGGCAUAGGAUAUGCGGGUAAACACCAUGCAUUAGAAUGACAUGAGGAUCACCCAUGUAGAAGGAUGAUAGC [Eternabot (L1) Solution 98] (Eterna round: R97, puzzle: Exclusion 2)	28.3 nM	29.2 nM		
GCUGCAUCAGGAUAUAUACGGUAUCACAUGAGGAUCACCCAUGUUCGUGUGGAACUGAACGUAGAAGGGAUUAGAU [Aramaa] (puzzle: Exclusion 5)			28.3 nM	apparent KD of MS2 coat protein [2]: 31.1 nM; apparent KD of MS2 coat protein [4]: 24.5 nM
GGGUGACAUGAGGAUCACCCAUGUCAGGAUAUUGAUCGUGAUCGGAAAUGAUCGUGAUCGAGAAGGGACUGCCC [-27.4, -26.4 kcal, A 27% sequence 2] (Eterna round: R97, puzzle: Exclusion 1)	224 nM	52 nM		
GGGACACAUGAGGAUCACCCAUGUGAGGAUAUGUUAGUUUCGGCCAAAGCCGAAAUUAACAGAAGGCACAUACC [JR_Exclusion1_Sub020] (puzzle: Exclusion 1)			35.7 nM	
AUUAACUUAGGAUAUACAUGAGGAUCACCCAUGUCCCACCCGUUACCCAUGACCAUAUGUAGAAGGAAGAAGAA [Exy#9] (Eterna round: R97, puzzle: Exclusion 3)	32.2 nM	39.5 nM		
GACGUGUGAGGAUAUCCGAUGCCGGUCCGGAAGGUUCGGGUGGAGAAGGCACAUGAGGAUCACCCAUGUGUAAG [Excls4-VII] (puzzle: Exclusion 4)			16.4 nM	
